US20110263454A1, “Methods of Identifying Functional Characteristics of Promoters, Transcription Modifying Proteins and Transcription Modulating Agents” (Salk Institute for Biological Studies, priority 2008, published 2011)

What was measured:
hG6PD promoter = assay: NHR-promoter luciferase screen, hG6PD promoter; format: cell-based, human; details: for Luc. act., normalized to lacZ / Normalized Luc. act., normalized to control: G6PD promoter reporter, co-transfected HR, without or with its ligand; for Normalized Luc. act., normalized to control: relative to control; for luciferase activity normalized to lacZ activity and to a control, hG6PD: hG6PD promoter-luciferase, CV-1 cells, NHR +/- ligand, control = 1.00
Method in brief: (§1)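 CV-1 cells were co-transfected with 50 ng NHR (homodimer or NHR/RXR heterodimer), 100 ng promoter-luciferase construct and 50 ng LacZ. Luciferase was normalized to LacZ and to a no-NHR/no-ligand control.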

MCP-1 promoter = assay: NHR-promoter luciferase screen, MCP-1 promoter; format: cell-based; details: for Normalized Luc. act., normalized to control / Luc. act., normalized to lacZ: MCP-1 promoter reporter; for Normalized Luc. act., normalized to control: HR without or with its ligand, relative to control; for Luc. act., normalized to lacZ: hormone receptor (HR) without or with its ligand; for mMCP-1 promoter reporter activity: transcription factor +/- ligand, control = 1.00
Method in brief: as §1

mPgc1b promoter = assay: NHR-promoter luciferase screen, mPgc1b promoter; format: cell-based, mouse; details: for Luc. act., normalized to lacZ / Normalized Luc. act., normalized to control: PGC1b promoter reporter, co-transfected HR, without or with its ligand; for Normalized Luc. act., normalized to control: relative to control; for luciferase activity normalized to lacZ activity and to a control, mPgc1b: mPgc1b promoter-luciferase, CV-1 cells, NHR +/- ligand, control = 1.00
Method in brief: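 CV-1 cells co-transfected with NHR homodimer or NHR/RXR heterodimer (pcDNA3.1, C-terminal V5H6 tag), promoter-luciferase construct and LacZ transfection control. Orphan receptors screened without ligand. Luciferase normalized to LacZ and to no-NHR/no-ligand control.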

mADRP promoter = assay: NHR-promoter luciferase screen, mADRP promoter; format: cell-based, mouse; details: for Luc. act., normalized to lacZ / Normalized Luc. act., normalized to control: ADRP promoter, HR/ligand component; for mADRP promoter reporter activity: transcription factor +/- ligand, control = 1.00
Method in brief: as §1

hCAR promoter = assay: NHR-promoter luciferase screen, hCAR promoter; format: cell-based, human; details: for luciferase activity normalized to lacZ activity and to a control, hCAR: hCAR promoter-luciferase, CV-1 cells, NHR +/- ligand, control = 1.00; for Luc. act., normalized to lacZ / Normalized Luc. act., normalized to control: hCAR promoter, HR/ligand component
Method in brief: as §1

SREBP1c promoter = assay: NHR-promoter luciferase screen, SREBP1c promoter; format: cell-based, mouse; details: for Luc. act., normalized to lacZ / Normalized Luc. act., normalized to control: SREBP1c promoter, HR component without or with ligand; for mSREBP1-c promoter reporter activity: transcription factor +/- ligand, control = 1.00
Method in brief: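 CV-1 cells co-transfected with 50 ng NHR (homodimer or NHR/RXR heterodimer), 100 ng promoter-luciferase and 50 ng LacZ. Luciferase read at 48 h, normalised to LacZ and to a no-NHR/no-ligand control.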

B1: CTF3: COUP-TF3 (NR2F6), cDNA driver (protein, UniProt P10588 1-404, looked up)
Nuclear receptor subfamily 2 …: MAMVTGGWGGPGGDTNGVDKAGGYPRAAEDDSASPPGAASDAEPGDEERPGLQVDCVVCGDKSSGKHYGVFTCEGCKSFFKRSIRRNLSYTCRSNRDCQIDQHHRNQCQYCRLKKCFRVGMRKEAVQRGRIPHSLPGAVAASSGSPPGSALAAVASGGDLFPGQPVSELIAQLLRAEPYPAAAGRFGAGGGAAGAVLGIDNVCELAARLLFSTVEWARHAPFFPELPVADQVALLRLSWSELFVLNAAQAALPLHTAPLLAAAGLHAAPMAAERAVAFMDQVRAFQEQVDKLGRLQVDSAEYGCLKAIALFTPDACGLSDPAHVESLQEKAQVALTEYVRAQYPSQPQRFGRLLLRLPALRAVPASLISQLFFMRLVGKTPIETLIRDMLLSGSTFNWPYGSGQ
Luc. act., normalized to lacZ (hG6PD promoter): 32.5
Normalized Luc. act., normalized to control (hG6PD promoter): 0.9
luciferase activity normalized to lacZ activity and to a control, hG6PD (hG6PD promoter): 0.87
Normalized Luc. act., normalized to control (MCP-1 promoter): 1.6
Luc. act., normalized to lacZ (MCP-1 promoter): 175.5
mMCP-1 promoter reporter activity (MCP-1 promoter): 1.64
Luc. act., normalized to lacZ (mPgc1b promoter): 4.9
Normalized Luc. act., normalized to control (mPgc1b promoter): 0.4
luciferase activity normalized to lacZ activity and to a control, mPgc1b (mPgc1b promoter): 0.42
Luc. act., normalized to lacZ (mADRP promoter): 462.7
Normalized Luc. act., normalized to control (mADRP promoter): 0.9
mADRP promoter reporter activity (mADRP promoter): 0.93
luciferase activity normalized to lacZ activity and to a control, hCAR (hCAR promoter): 0.14
Luc. act., normalized to lacZ (hCAR promoter): 4.5
Normalized Luc. act., normalized to control (hCAR promoter): 0.1
Luc. act., normalized to lacZ (SREBP1c promoter): 230.3
Normalized Luc. act., normalized to control (SREBP1c promoter): 0.7
mSREBP1-c promoter reporter activity (SREBP1c promoter): 0.71

B2: hMR: Mineralocorticoid Receptor (NR3C2, MR), cDNA driver (protein, UniProt P08235 1-984, looked up)
Mineralocorticoid receptor: METKGYHSLPEGLDMERRWGQVSQAVERSSLGPTERTDENNYMEIVNVSCVSGAIPNNSTQGSSKEKQELLPCLQQDNNRPGILTSDIKTELESKELSATVAESMGLYMDSVRDADYSYEQQNQQGSMSPAKIYQNVEQLVKFYKGNGHRPSTLSCVNTPLRSFMSDSGSSVNGGVMRAVVKSPIMCHEKSPSVCSPLNMTSSVCSPAGINSVSSTTASFGSFPVHSPITQGTPLTCSPNVENRGSRSHSPAHASNVGSPLSSPLSSMKSSISSPPSHCSVKSPVSSPNNVTLRSSVSSPANINNSRCSVSSPSNTNNRSTLSSPAASTVGSICSPVNNAFSYTASGTSAGSSTLRDVVPSPDTQEKGAQEVPFPKTEEVESAISNGVTGQLNIVQYIKPEPDGAFSSSCLGGNSKINSDSSFSVPIKQESTKHSCSGTSFKGNPTVNPFPFMDGSYFSFMDDKDYYSLSGILGPPVPGFDGNCEGSGFPVGIKQEPDDGSYYPEASIPSSAIVGVNSGGQSFHYRIGAQGTISLSRSARDQSFQHLSSFPPVNTLVESWKSHGDLSSRRSDGYPVLEYIPENVSSSTLRSVSTGSSRPSKICLVCGDEASGCHYGVVTCGSCKVFFKRAVEGQHNYLCAGRNDCIIDKIRRKNCPACRLQKCLQAGMNLGARKSKKLGKLKGIHEEQPQQQQPPPPPPPPQSPEEGTTYIAPAKEPSVNTALVPQLSTISRALTPSPVMVLENIEPEIVYAGYDSSKPDTAENLLSTLNRLAGKQMIQVVKWAKVLPGFKNLPLEDQITLIQYSWMCLSSFALSWRSYKHTNSQFLYFAPDLVFNEEKMHQSAMYELCQGMHQISLQFVRLQLTFEEYTIMKVLLLLSTIPKDGLKSQAAFEEMRTNYIKELRKMVTKCPNNSGQSWQRFYQLTKLLDSMHDLVSDLLEFCFYTFRESHALKVEFPAMLVEIISDQLPKVESGNAKPLYFHRK
Luc. act., normalized to lacZ (hG6PD promoter): 35.2
Normalized Luc. act., normalized to control (hG6PD promoter): 0.9
luciferase activity normalized to lacZ activity and to a control, hG6PD (hG6PD promoter): 0.94
Normalized Luc. act., normalized to control (MCP-1 promoter): 0.0
mMCP-1 promoter reporter activity (MCP-1 promoter): 0.00
Luc. act., normalized to lacZ (mPgc1b promoter): 5.7
Normalized Luc. act., normalized to control (mPgc1b promoter): 0.5
luciferase activity normalized to lacZ activity and to a control, mPgc1b (mPgc1b promoter): 0.48
Luc. act., normalized to lacZ (mADRP promoter): 306.4
Normalized Luc. act., normalized to control (mADRP promoter): 0.6
mADRP promoter reporter activity (mADRP promoter): 0.62
luciferase activity normalized to lacZ activity and to a control, hCAR (hCAR promoter): 0.81
Luc. act., normalized to lacZ (hCAR promoter): 25.6
Normalized Luc. act., normalized to control (hCAR promoter): 0.8
Luc. act., normalized to lacZ (SREBP1c promoter): 223.2
Normalized Luc. act., normalized to control (SREBP1c promoter): 0.7
mSREBP1-c promoter reporter activity (SREBP1c promoter): 0.69

B3: PR: Progesterone Receptor (NR3C3), cDNA driver (protein, UniProt P06401 1-933, looked up)
Progesterone receptor: MTELKAKGPRAPHVAGGPPSPEVGSPLLCRPAAGPFPGSQTSDTLPEVSAIPISLDGLLFPRPCQGQDPSDEKTQDQQSLSDVEGAYSRAEATRGAGGSSSSPPEKDSGLLDSVLDTLLAPSGPGQSQPSPPACEVTSSWCLFGPELPEDPPAAPATQRVLSPLMSRSGCKVGDSSGTAAAHKVLPRGLSPARQLLLPASESPHWSGAPVKPSPQAAAVEVEEEDGSESEESAGPLLKGKPRALGGAAAGGGAAAVPPGAAAGGVALVPKEDSRFSAPRVALVEQDAPMAPGRSPLATTVMDFIHVPILPLNHALLAARTRQLLEDESYDGGAGAASAFAPPRSSPCASSTPVAVGDFPDCAYPPDAEPKDDAYPLYSDFQPPALKIKEEEEGAEASARSPRSYLVAGANPAAFPDFPLGPPPPLPPRATPSRPGEAAVTAAPASASVSSASSSGSTLECILYKAEGAPPQQGPFAPPPCKAPGASGCLLPRDGLPSTSASAAAAGAAPALYPALGLNGLPQLGYQAAVLKEGLPQVYPPYLNYLRPDSEASQSPQYSFESLPQKICLICGDEASGCHYGVLTCGSCKVFFKRAMEGQHNYLCAGRNDCIVDKIRRKNCPACRLRKCCQAGMVLGGRKFKKFNKVRVVRALDAVALPQPVGVPNESQALSQRFTFSPGQDIQLIPPLINLLMSIEPDVIYAGHDNTKPDTSSSLLTSLNQLGERQLLSVVKWSKSLPGFRNLHIDDQITLIQYSWMSLMVFGLGWRSYKHVSGQMLYFAPDLILNEQRMKESSFYSLCLTMWQIPQEFVKLQVSQEEFLCMKVLLLLNTIPLEGLRSQTQFEEMRSSYIRELIKAIGLRQKGVVSSSQRFYQLTKLLDNLHDLVKQLHLYCLNTFIQSRALSVEFPEMMSEVIAAQLPKILAGMVKPLLFHKK
Luc. act., normalized to lacZ (hG6PD promoter): 45.4
Normalized Luc. act., normalized to control (hG6PD promoter): 1.2
luciferase activity normalized to lacZ activity and to a control, hG6PD (hG6PD promoter): 1.22
Normalized Luc. act., normalized to control (MCP-1 promoter): 1.2
Luc. act., normalized to lacZ (MCP-1 promoter): 128.0
mMCP-1 promoter reporter activity (MCP-1 promoter): 1.20
Luc. act., normalized to lacZ (mPgc1b promoter): 8.9
Normalized Luc. act., normalized to control (mPgc1b promoter): 0.7
luciferase activity normalized to lacZ activity and to a control, mPgc1b (mPgc1b promoter): 0.75
Luc. act., normalized to lacZ (mADRP promoter): 497.2
Normalized Luc. act., normalized to control (mADRP promoter): 1.0
mADRP promoter reporter activity (mADRP promoter): 1.00
luciferase activity normalized to lacZ activity and to a control, hCAR (hCAR promoter): 1.00
Luc. act., normalized to lacZ (hCAR promoter): 31.5
Normalized Luc. act., normalized to control (hCAR promoter): 1.0
Luc. act., normalized to lacZ (SREBP1c promoter): 466.4
Normalized Luc. act., normalized to control (SREBP1c promoter): 1.4
mSREBP1-c promoter reporter activity (SREBP1c promoter): 1.45

B4: CTF2: COUP-TF2 (NR2F2), cDNA driver (protein, UniProt P24468 1-414, looked up)
COUP transcription factor 2: MAMVVSTWRDPQDEVPGSQGSQASQAPPVPGPPPGAPHTPQTPGQGGPASTPAQTAAGGQGGPGGPGSDKQQQQQHIECVVCGDKSSGKHYGQFTCEGCKSFFKRSVRRNLSYTCRANRNCPIDQHHRNQCQYCRLKKCLKVGMRREAVQRGRMPPTQPTHGQFALTNGDPLNCHSYLSGYISLLLRAEPYPTSRFGSQCMQPNNIMGIENICELAARMLFSAVEWARNIPFFPDLQITDQVALLRLTWSELFVLNAAQCSMPLHVAPLLAAAGLHASPMSADRVVAFMDHIRIFQEQVEKLKALHVDSAEYSCLKAIVLFTSDACGLSDVAHVESLQEKSQCALEEYVRSQYPNQPTRFGKLLLRLPSLRTVSSSVIEQLFFVRLVGKTPIETLIRDMLLSGSSFNWPYMAIQ
Luc. act., normalized to lacZ (hG6PD promoter): 43.9
Normalized Luc. act., normalized to control (hG6PD promoter): 1.2
luciferase activity normalized to lacZ activity and to a control, hG6PD (hG6PD promoter): 1.17
Normalized Luc. act., normalized to control (MCP-1 promoter): 0.0
mMCP-1 promoter reporter activity (MCP-1 promoter): 0.00
Luc. act., normalized to lacZ (mPgc1b promoter): 12.2
Normalized Luc. act., normalized to control (mPgc1b promoter): 1.0
luciferase activity normalized to lacZ activity and to a control, mPgc1b (mPgc1b promoter): 1.03
Luc. act., normalized to lacZ (mADRP promoter): 893.8
Normalized Luc. act., normalized to control (mADRP promoter): 1.8
mADRP promoter reporter activity (mADRP promoter): 1.80
luciferase activity normalized to lacZ activity and to a control, hCAR (hCAR promoter): 0.23
Luc. act., normalized to lacZ (hCAR promoter): 7.2
Normalized Luc. act., normalized to control (hCAR promoter): 0.2
Luc. act., normalized to lacZ (SREBP1c promoter): 455.6
Normalized Luc. act., normalized to control (SREBP1c promoter): 1.4
mSREBP1-c promoter reporter activity (SREBP1c promoter): 1.41
